“And” between values parts separate entries of the source, which are not always exact repeats. Identical values can stand only once. Like-named read-outs stand apart in the source and are kept apart here.

Assay [1] addresses T1, recombinant human PD-1 Fc chimera (human, UniProt Q15116 25-167).
T1 construct: Bought protein; also called human PD-1-huFc; huPD-1-Fc; not shown: human Fc
In words: SPR Biacore T200, PD-1-huFc amine-coupled, single cycle kinetics. The procedure: Binding kinetics of certain VH single domain antibodies binding to human PD-1-huFc were measured by surface plasmon resonance (SPR) technology using Biacore T200 instrument (GE Healthcare). Recombinant human PD-1-huFc was immobilized by standard amine coupling to CM5 sensorschip (GE Healthcare) using in range of 0.1-0.01 mg/ml solution of antigen in 10 mM sodium acetate at pH 5.5. For the reference flow cell, a blank immobilisation was carried out. Single cycle kinetics assays were used to study the interaction, a five point, three-fold dilution series of each Humabody® was made with a top concentration of 30 nM. The binding kinetics were followed by flowing the Humabody® over the chip surface in HBS EP+ buffer at a flow rate of 30 μl/min. The contact time for each of the association steps was 180 seconds and the dissociation step was varied between 1200-3600 seconds. The data was fitted to a 1:1 binding model after double reference subtraction using the Biacore T200 Evaluation software.

Assay [2] addresses T2, cynomolgus PD-1 recombinant protein (cynomolgus, UniProt B0LAJ3 25-170).
T2 construct: Detected with anti human-Fc cryptate, so probably Fc tagged; also called cyno PD-1; cynomolgus PD-1 (Acro Biosystems cat no. PD-1-05254); not shown: The vendor's carrier tag; It is probably a human Fc, since detection used anti human-Fc cryptate
The experiment in a line: HTRF binding, 2 nM PD-1, anti-Fc cryptate and anti-His-D2. How it is done: (§1) e) Species Cross Reactivity Testing Purified […] were tested for their ability to bind to human PD-1 (R&D Systems cat no. 1086-PD), cynomolgus PD-1 (Acro Biosystems cat no. PD-1-05254) and mouse PD-1 (R&D Systems cat no. 1021-PD) in an HTRF Binding assay format. All reagents and serially diluted VH were prepared in assay buffer containing PBS, 0.1% BSA and 0.4M Potassium Fluoride. Samples or assay buffer (non-specific binding) were incubated with 2 nM human/cynomolgus or mouse PD-1, 1 nM Anti human-Fc Cryptate PAb (Cisbio cat. no. 61HFCKLB) and 30 nM anti His-D2 (CisBio cat no 61HISDLA) in black 384-shallow well assay plates for a minimum of 3 hours at room temperature. Time-resolved fluorescent emission at 620 nm and 665 nm was measured following excitation at 337 nm on the BMG PHERAstar plate reader. The HTRF ratio were calculated ((665 nm emission/620 nm emission)*10000) and the data corrected for (non-specific binding) to give the specific binding signal.

The target of assay [3] is T1, recombinant human PD-1 Fc chimera. The assay is described as above. The procedure: as §1
The target is the same in assay [4]. The experiment in a line: HTRF inhibition; biotinylated PD-L2-Fc vs Eu-cryptate PD-1-Fc.
The next assay deals with T3, mouse PD-1 protein (mouse, UniProt Q02242 25-167).
T3 construct: Detected with anti human-Fc cryptate, so probably Fc tagged; also called mouse PD-1 (R&D Systems cat no. 1021-PD)
T3 sequence (looked up): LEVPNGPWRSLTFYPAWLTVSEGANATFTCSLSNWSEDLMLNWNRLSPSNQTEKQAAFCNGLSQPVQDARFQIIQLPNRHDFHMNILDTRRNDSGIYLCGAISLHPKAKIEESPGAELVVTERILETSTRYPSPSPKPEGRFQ
The experiment in a line: HTRF binding, 2 nM mouse PD-1. The procedure:
as §1

Assay [5] concerns the target T1, recombinant human PD-1 Fc chimera. In words: HTRF inhibition; strep-tagged PD-L1 vs PD-1-Fc. The procedure:
All samples and reagents were prepared in HTRF assay buffer containing PBS, 0.1% (w/v) BSA and 0.4M Potassium Fluoride. […] Total binding controls containing periplasmic extract sample buffer and non-specific binding controls containing excess untagged competitor were set up on each plate for data normalisation. Time-resolved fluorescent emission at 620 nm and 665 nm was measured following excitation at 337 nm on the BMG PHERAstar plate reader. Data was expressed as a % of the total binding control (% control) after subtraction of the background signal determined from the non-specific binding control wells.

In assay [6] the target is T4, human PD-1 expressed on cells (CHO human PD-1 cells) (human, UniProt Q15116 21-288).
T4 construct: also called CHO TREX human PD-1 cell line; CHO PD-1
The experiment in a line: FMAT inhibition assay on CHO human PD-1 cells; blocked ligand: human Fc tagged human PD-L1. The procedure:
(§2) All reagents and serially diluted VH were prepared in FMAT assay buffer. […] Plates were incubated for 2 hours at room temperature then fluorescence measured in the FL2 (502 nm-537 nm) and FL5 (677-800 nm) channels on the Mirrorball plate reader (TTP) following excitation at 488 nm and 640 nm. Data was expressed as a % of the total binding control (i.e. % control) after subtraction of the background signal determined from the non-specific binding control wells.

Assay [7] has as its target T4, human PD-1 expressed on cells (CHO …). The experiment in a line: FMAT inhibition assay on CHO human PD-1 cells; blocked ligand: human Fc tagged human PD-L1; a separate run from Figure 4 a). How it is done:
as §2

Assay [8] shares this target. The experiment in a line: FMAT 1.57 epitope competition assay on CHO human PD-1 cells; competitor: 1.57-Strep tagged protein; 7 days in mouse serum. The procedure:
(§3) For the epitope competition assay reagents were prepared in FMAT assay buffer. […] Plates were incubated for a minimum of 1.5 hours at room temperature then fluorescence measured in the FL2 (502 nm-537 nm) and FL5 (677-800 nm) channels on the Mirrorball plate reader (TTP) following excitation at 488 nm and 640 nm. Data was expressed as a % of the total binding control (i.e. % control) after subtraction of the background signal determined from the non-specific binding control wells.
(§4) Serum stability of VH and multivalent VH constructs was assessed by measurement of their activity following incubation for 0, 1, 4 or 7 days in mouse serum (Sigma M5905).

The target in assay [9] is human PD-1 expressed on cells (CHO human PD-1 cells) (human) (UniProt Q15116). In words: FMAT inhibition assay on CHO human PD-1 cells; blocked ligand: human Fc tagged human PD-L1.
Assay [10] has the same target. In words: FMAT 1.57 epitope competition assay on CHO human PD-1 cells; competitor: 1.57-Strep tagged protein; 7 days in mouse serum.
Assay [11] concerns the target T4, human PD-1 expressed on cells (CHO …). In words: cell-based or functional assay.
The target is the same in assay [12]. The experiment in a line: FMAT 1.57 epitope competition assay on CHO human PD-1 cells; competitor: 1.57-Strep tagged protein; 0 days in mouse serum. The procedure:
as §3, §4

The target of assay [13] is human PD-1 expressed on cells (CHO human PD-1 cells) (human) (UniProt Q15116). The description is as above.
Assay [14] has the same target. The experiment in a line: FMAT 1.57 epitope competition assay on CHO human PD-1 cells; competitor: 1.57-Strep tagged protein; 1 day in mouse serum.
The target in assay [15] is human PD-1 on primary human CD4+ T cells (human, UniProt Q15116 21-288). In words: flow cytometry on PHA-stimulated human CD4+ T cells (live cell gate). The procedure: Binding of monovalent single domain antibodies and multivalent binding agents to T cells was measured using flow cytometry. […] T-cells were stimulated with 2.5 μg/ml PHA for 2-4 days in RPMI media supplemented with 10% FBS, 2 mM Glutamine, 1× Pen/Strep. Cells were transferred into 96 well plates (75000 per well), blocked for 10 mins with PBS/1% BSA, then incubated with serially diluted VH in staining buffer (PBS/1% BSA) for 1 hour at 4° C. Cells were washed with staining buffer by centrifugation then incubated with 10 μg/ml biotinylated Anti His antibody for 40 mins at 4° C. Cells were washed again then stained with Streptavidin Alexa Fluor-488 (10 μg/ml) and 1:5000 diluted Live Dead near IR stain (Molecular Probes cat no. L10119) for 30 mins at 4° C. After further washing cells were fixed and fluorescence measured by flow cytometry.

For assay [16], the target named is T1, recombinant human PD-1 Fc chimera. The experiment in a line: SPR Biacore T200, PD-1-Fc captured on protein G, single cycle kinetics. The procedure: Single cycle kinetics assays were used to study the interaction between human Fc tagged human PD-1 with Humabody® on a Biacore T200 instrument (GE Healthcare). Protein G was amine coupled to two flow cells of a CM-5 chip. Human Fc tagged recombinant human PD-1 was captured onto one of the flow cells. The other was used as the reference flow cell. A five point, three-fold dilution series of each Humabody® was made with a top concentration within the range of 50 to 150 nM. The binding kinetics were followed by flowing the Humabody® over the chip surface in HBS EP+ buffer at a flow rate of 30 μl/min. The contact time for each of the association steps was 180 seconds and the dissociation step was 3600 seconds. The data was fitted to a 1:1 binding model after double reference subtraction using the Biacore T200 Evaluation software.

Assay [17] deals with human PD-1 expressed on cells (CHO human PD-1 cells) (human) (UniProt Q15116). In words: cell-based or functional assay.
Assay [18] has as its target T4, human PD-1 expressed on cells (CHO …). In words: FMAT 1.57 epitope competition assay on CHO human PD-1 cells; competitor: 1.57-Strep tagged protein; 4 days in mouse serum. The procedure: as §3, §4
The target is the same in assay [19]. In words: FMAT 1.57 epitope competition assay on CHO human PD-1 cells; competitor: 1.57-Strep tagged protein; 1 day in mouse serum. How it is done:
as §3, §4

Sequence of human PD-1 expressed on cells (CHO human PD-1 cells) (human) (Q15116 21-288): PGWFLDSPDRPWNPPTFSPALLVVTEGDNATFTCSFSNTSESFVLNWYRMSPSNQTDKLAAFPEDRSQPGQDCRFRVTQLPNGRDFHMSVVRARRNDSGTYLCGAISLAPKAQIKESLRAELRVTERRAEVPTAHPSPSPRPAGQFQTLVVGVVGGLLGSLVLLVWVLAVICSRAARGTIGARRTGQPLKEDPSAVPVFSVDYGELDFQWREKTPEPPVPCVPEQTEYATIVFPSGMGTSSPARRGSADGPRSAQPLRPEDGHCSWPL
T4 sequence (Q15116 21-288): as above
T1 sequence (Q15116 25-167 limits assumed, change not shown): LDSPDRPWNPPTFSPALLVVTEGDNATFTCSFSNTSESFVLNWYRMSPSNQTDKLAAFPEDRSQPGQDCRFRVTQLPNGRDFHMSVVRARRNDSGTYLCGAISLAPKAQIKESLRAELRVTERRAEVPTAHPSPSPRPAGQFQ
T2 sequence (B0LAJ3 entry or part of it limits assumed): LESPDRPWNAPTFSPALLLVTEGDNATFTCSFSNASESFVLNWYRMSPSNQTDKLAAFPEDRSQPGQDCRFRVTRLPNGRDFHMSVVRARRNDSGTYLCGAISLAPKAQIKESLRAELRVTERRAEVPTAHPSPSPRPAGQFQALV
Sequence of human PD-1 on primary human CD4+ T cells (Q15116 21-288): as the sequence (Q15116 21-288) above

B1: Humabody® 1.1 (VHH)
VHH: QVQLVESGGGLVKPGGSLRLSCAASGFTFSDYTMTWMRQAPGKGLEWVSYISTGGTIKYYTDSVKGRFTISRDNAKNSLYLQMNSLRADDTAVYYCAREAPLRLGESPHDAFDIWGQGTMVTVSS
notes: human VH single domain antibody; also called VH single domain antibody 1.1; clone 1.1
Take B1: in assay [1], the Kd worked out at 0.676 nM, the koff worked out at 7.35e-05 s⁻¹ and the kon worked out at 109000 M⁻¹ s⁻¹. In assay [2], the EC50 amounted to 6.3 nM. Moreover, the concentration for a half-maximal effect (EC50) in assay [3] was 4 nM. Also, the IC50 in assay [4] is 4.9 nM. Besides, the binding result with mouse PD-1 protein was “no binding”. In addition, in assay [5], the IC50 came out at 1.27 nM. The “IC50 (read off the curve)” value in assay [6] was about 20 nM.

B2: Humabody® 1.57 (VHH)
VHH: QVQLVESGGGLVKPGGSLRLSCAASGFTFSDNSMTWMRQAPGKGLEWVSYISSGGGVIFYADSVKGRFTISRDNAKNSLYLQMNSLRADDTAVYYCAREAPLRLGESPHDAFDISGQGTMVTVSS
notes: human VH single domain antibody
In the case of B2, the “IC50 (read off the curve)” value in assay [7] was about 4 nM; in [8], about 2 nM; in assay [9] it was 6 nM; in assay [10], 3 nM; in assay [12], about 0.4 nM; in [13] it was 2 nM. The IC50 (read off the curve) in assay [14] is 1 nM; in [18] it was about 1 nM; in assay [19], about 0.7 nM. Besides, the “Reporter Assay EC50” value in assay [11] was determined as 8.6 nM. Also, the EC50 in [2] was 0.75 nM; in [3], 0.59 nM. In the assay with mouse PD-1 protein, the binding result was “no binding”. The EC50 (read off the curve) in [15] was 1 nM; in [15] (record 2) it was about 0.2 nM. In assay [16], the Kd was 0.0586 nM and 0.0533 nM. Besides, the koff in [16] is 1.99e-05 s⁻¹ and 2.32e-05 s⁻¹. In assay [16], the kon is 340000 M⁻¹ s⁻¹ and 435000 M⁻¹ s⁻¹. Moreover, the EC50 (M), human PD-1 reporter gene assay in [17] was 1e-08 M. Further, in assay [17], the EC50 (M), reporter assay came to 1e-08 M.

(Values after patent publication US20200239573A1 (CRESCENDO BIOLOGICS, published 2020).)
